Measured values as given in patent publication US20240327538A1 (AMUNIX PHARMACEUTICALS, published 2024).

T1: cynomolgus monkey CD3 epsilon (cynomolgus monkey, UniProt Q95LI5 22-117, limits assumed)
T1 construct: also called cyCD3e
T1 sequence (looked up): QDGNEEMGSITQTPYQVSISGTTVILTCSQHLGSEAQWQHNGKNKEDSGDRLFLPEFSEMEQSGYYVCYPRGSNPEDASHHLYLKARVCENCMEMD


What was measured:
human PSMA [1] = target: T2, human PSMA (human, UniProt Q04609 44-750, limits assumed); experiment: Biacore
T2 construct: also called huPSMA
T2 sequence (Q04609 44-750 limits assumed): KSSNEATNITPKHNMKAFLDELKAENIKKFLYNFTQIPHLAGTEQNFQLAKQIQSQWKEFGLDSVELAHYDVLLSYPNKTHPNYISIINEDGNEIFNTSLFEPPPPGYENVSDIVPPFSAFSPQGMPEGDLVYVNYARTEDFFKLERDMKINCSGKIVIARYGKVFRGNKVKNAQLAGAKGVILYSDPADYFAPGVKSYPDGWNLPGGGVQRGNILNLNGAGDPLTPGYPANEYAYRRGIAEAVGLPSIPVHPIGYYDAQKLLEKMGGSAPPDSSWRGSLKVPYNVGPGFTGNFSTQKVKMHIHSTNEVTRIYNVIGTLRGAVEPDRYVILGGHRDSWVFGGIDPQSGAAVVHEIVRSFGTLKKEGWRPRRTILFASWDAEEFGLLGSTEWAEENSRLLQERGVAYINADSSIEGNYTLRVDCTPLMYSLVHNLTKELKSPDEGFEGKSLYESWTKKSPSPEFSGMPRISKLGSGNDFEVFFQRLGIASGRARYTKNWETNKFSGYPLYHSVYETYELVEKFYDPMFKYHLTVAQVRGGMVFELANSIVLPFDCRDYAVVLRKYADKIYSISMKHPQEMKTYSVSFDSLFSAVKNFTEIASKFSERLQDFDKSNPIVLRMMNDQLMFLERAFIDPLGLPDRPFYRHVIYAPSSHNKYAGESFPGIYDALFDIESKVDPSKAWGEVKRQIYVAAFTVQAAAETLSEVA

cynomolgus monkey PSMA [2] = target: T3, cynomolgus monkey PSMA (cynomolgus monkey, UniProt A0A2K5VNZ0 44-750); experiment: Biacore
T3 construct: also called cyPSMA; Cyno PSMA

human PSMA [3] = target: T2, human PSMA; experiment: Octet
cynomolgus monkey PSMA [4] = target: T3, cynomolgus monkey PSMA; experiment: Octet
human CD3 epsilon [5] = target: T4, human CD3 epsilon (human, UniProt P07766 23-126, limits assumed); experiment: Octet
T4 construct: also called huCD3e
T4 sequence (P07766 23-126 limits assumed): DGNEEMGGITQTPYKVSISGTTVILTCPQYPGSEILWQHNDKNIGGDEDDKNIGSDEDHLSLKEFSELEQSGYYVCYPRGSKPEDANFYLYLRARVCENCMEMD

[6] = target: T1, cynomolgus monkey CD3 epsilon; experiment: Octet
human CD3 epsilon [7] = target: T4, human CD3 epsilon; experiment: Biacore
[8] = target: T1, cynomolgus monkey CD3 epsilon; experiment: Biacore

Kd (human PSMA [1]) [nM] | Kd (cynomolgus monkey PSMA [2]) [nM] | Kd (human PSMA [3]) [nM] | Kd (cynomolgus monkey PSMA [4]) [nM] | Kd (human CD3 epsilon [5]) [nM] | Kd [6] [nM] | Kd (human CD3 epsilon [7]) [nM] | Kd [8] [nM] | Binder
19 | 354 | 13.2 | 198 | 43 | 44.9 | 27.3 | 26.6 | uTCE from AC3928 (bispecific antibody, unmasked TCE released from this paTCE; also called PSMA.350-CD3.23 uTCE; AMX500-P6) LTGPGTSESATPESQVQLVESGGGVVQPGRSLRLSCAASGRTFGIYVWGWFRQAPGKEREFVGAMSWSGSNRKVSDSVKGRFTISRDNSKNTLYLQMNSLRAEDTAVYYCAASNKEYGRTWYDFNESDYWGQGTQVTVSSGGGGSGGGSELVVTQEPSLTVSPGGTVTLTCRSSNGAVTSSNYANWVQQKPGQAPRGLIGGTNKRAPGTPARFSGSLLGGKAALTLSGVQPEDEAVYYCALWYPNLWVFGGGTKLTVLSESATPESGPGTSPGATPESGPGTSESATPEVQLLESGGGIVQPGGSLKLSCAASGFTFNTYAMNWVRQAPGKGLEWVARIRSKYNNYATYYADSVKDRFTISRDDSKNTVYLQMNNLKTEDTAVYYCVRHENFGNSYVSWFAHWGQGTLVTVSSGTATPESGPGEAGRSASHTPAG
0.5 | 13 | 1.6 | 13.1 | 26.6 | 33.7 | 9.83 | 10.4 | uTCE from AC3934 (bispecific antibody, unmasked TCE released from this paTCE; also called PSMA.262-CD3.228 uTCE) LTGPGTSESATPESQVQLVESGGGVVQPGRSLRLSCAASGRTFGIYVWGWVRQAPGKEREFVGAISWSGSNRKVSDSVKGRFTISRDNSKNTLYLQMNSLRAEDTAVYYCAASNKLYGRTWYDFNESDYWGQGTQVTVSSGGGGSGGGSELVVTQEPSLTVSPGGTVTLTCRSSNGAVTSSNYANWVQQKPGQAPRGLIGGTNKRAPGTPARFSGSLLGGKAALTLSGVQPEDEAVYYCALWYPNLWVFGGGTKLTVLSESATPESGPGTSPGATPESGPGTSESATPEVQLVESGGGIVQPGGSLRLSCAASGFTFSTYAMNWVRQAPGKGLEWVGRIRTKRNNYATYYADSVKGRFTISRDDSKNTVYLQMNSLKTEDTAVYYCVRHENFGNSYVSWFAHWGQGTLVTVSSGTATPESGPGEAGRSASHTPAG
